Consider five molecules from article PMC4992063, “PARP3 is a sensor of nicked nucleosomes and monoribosylates histone H2BGlu2”.

For series [1], the target named is Reconstituted nicked mononucleosome (recombinant histone octamer on 601.2 DNA with a site-specific nick) (Xenopus laevis | not stated). Briefly: Ni-NTA nanogold labelling with negative-stain electron microscopy; full-length His-tagged cPARP3 incubated for 30 min with intact or nicked nucleosomes; Ni-NTA-conjugated 5 nm gold added at 1:10 (cPARP3-nucleosomes:Ni-gold); negative stain with 2% uranyl acetate.

Series [2] concerns His-tagged cPARP3 (Gallus gallus). The series is described as follows: negative-stain EM with Ni-NTA nanogold. The following applies: NMR: 20 mM Tris-HCl pH 7.0, 125 mM NaCl, 1 mM TCEP, 10% D2O, 303 K, ~300 uM protein, EMSA and EM buffers not given in material. Background: A gel shift assay detects complexes by their altered migration in electrophoresis.
In series [3] the target is T1, cPARP3 NTD-WGR (1-169) (Gallus gallus, UniProt E1BSI0 1-169).
T1 sequence: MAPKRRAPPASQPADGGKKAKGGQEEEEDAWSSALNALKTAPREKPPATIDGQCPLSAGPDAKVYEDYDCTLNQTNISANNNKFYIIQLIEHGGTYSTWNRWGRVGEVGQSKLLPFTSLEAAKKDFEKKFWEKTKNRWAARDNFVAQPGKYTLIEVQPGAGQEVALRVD
The series is described as follows: NMR (1H-15N HSQC titration); protein:DNA 5:1 to 1:2; NMR: 20 mM Tris-HCl pH 7.0, 125 mM NaCl, 1 mM TCEP, 10% D2O, 303 K, ~300 uM protein; EMSA and EM buffers not given in material. The following applies: protein: recombinant; tags: N-terminal His tag (pNIC28-Bsa4) removed by TEV; 15N/13C labelled; nicked duplex: S42 (10 nt) and S43 (9 nt) annealed to S41.

For series [4], the target named is T1, cPARP3 NTD-WGR (1-169). Briefly: NMR (1H-15N HSQC); NMR: 20 mM Tris-HCl pH 7.0, 125 mM NaCl, 1 mM TCEP, 10% D2O, 303 K, ~300 uM protein; EMSA and EM buffers not given in material. The following applies: protein: recombinant; tags: N-terminal His tag (pNIC28-Bsa4) removed by TEV; 15N/13C labelled; 9 bp with 3' overhang 10 nt on S41.

As to “Full-length His-tagged chicken PARP3 (from UniProt E1BSI0 1-526) (enzyme)”, in series [1], the percent of nucleosomes with a co-locating gold particle was 85%.

In series [2], intact 601.2 mononucleosome came in with a binding signal (% of nucleosomes with gold particle) of 30.

With nicked 601.2 mononucleosome, in series [2] (single nick at nucleotide 45 (Nt.BsmAI)), the binding signal (% of nucleosomes with gold particle) is 85.

B1: 19-bp duplex with 5'-phosphorylated nick (Gap0 NMR) (dsDNA)
DNA 1: GCACAGCCGTGAGCGATGC
DNA 2: GCATCGCTCA
DNA 3: CGGCTGTGC
modifications: 5'-phosphate on S43
On to B1, for which the binding result with cPARP3 NTD-WGR (1-169) [3] is recorded as “binds”.

B2: 10-nt 3'-overhang duplex with recessed 5'-phosphate (dsDNA)
DNA 1: GCACAGCCGTGAGCGATGC
DNA 2: CGGCTGTGC
modifications: 5'-phosphate on S43
Regarding B2, the binding result with cPARP3 NTD-WGR (1-169) [4] was “binds”.
